Measurements from PMC7835349 (Communications Biology, 2021).
Values joined by “and” are separate entries in the source; they are usually repeats but may differ in a detail not shown here. Equal entries are not always repeated.

Columns and labels:
[1] = Tumour pharmacokinetics (released and total AZD4320) in RS4;11 tumours; format: in vivo, C.B-17 SCID mouse; details: for Concentration of Released AZD4320 in Tumour, Mean / Concentration of Released AZD4320 in Tumour, individual samples (Fig 5g/5h) / Concentrations of Total AZD4320 in Tumour, individual samples: 10 mg/kg AZD4320 equivalent; for Concentration of Released AZD4320 in Tumour, individual samples (Fig 5g/5h) / Concentrations of Total AZD4320 in Tumour, individual samples / Concentration of total AZD4320 in tumour: listed as SPL-8977; for Mean concentration of total AZD4320 in tumour / Concentration of total AZD4320 in tumour: tumour tissue; for Mean concentration of total AZD4320 in tumour: mean of 3 samples
Description: For tumour measurements, tumours were harvested, split into smaller pieces and snap frozen in liquid nitrogen. Frozen tumour samples were subsequently weighed and then homogenised for both ‘released’ and ‘total’ AZD4320. For ‘released’ AZD4320, samples were homogenised on ice with an equal volume (w/v) of blank plasma containing 0.2 M citric acid. The samples were then processed according to the aforementioned plasma approach. For ‘total’ AZD4320, samples were homogenised with an equal volume of plasma (w/v) and then processed according to the aforementioned ‘total’ approach.
Sample analyses were performed in batches containing study samples, calibration standards at 10 concentration levels, QC samples at three concentration levels in duplicate and blank samples. The analytical run acceptance criteria for calibration standards and QC samples was that at least 75% of back-calculated concentrations for calibration standards and at least 2/3 of the QC samples (at least 50% at each concentration level) should be within ±20% (±25% at LLOQ) from nominal value.
(§1) Female C.B.−17 SCID mice were purchased from Charles River Laboratories. Mice were 5–8 weeks old at the time of tumour implantation. All xenograft studies were conducted at our Association for the Assessment and Accreditation of Laboratory Animal Care accredited facility in Waltham, MA in accordance with ethical regulations described in the guidelines established by the internal Institutional Animal Care and Use Committee. The dendrimer conjugates were formulated in citrate/phosphate buffer pH 5.0, diluted 1:10 with 5% glucose containing 1% w/v Kolliphor HS15, and AZD4320 was formulated in 30% HP-β-CD and dosed as a weekly intravenous (IV) administration at a volume of 5 ml/kg at the indicated doses. Five million RS4;11, five million SUDHL-4 or five million OCI-LY-10 cells were injected subcutaneously in the right flank of mice in a volume of 0.1 ml. Tumour volumes (measured by caliper), animal body weight, and tumor condition were recorded twice weekly for the duration of the study. The tumour volume was calculated (taking length to be the longest diameter across the tumour and width to be the corresponding perpendicular diameter) using the formula: length (mm) x width (mm)^2/0.52. For efficacy studies, mice were randomized based on tumour volumes using stratified sampling and enrolled into control and treatment groups. Tumour growth inhibition from the start of treatment was quantified by measuring the difference in tumour volume between control and treated groups. Survival analysis was evaluated using Mantel-Cox test. Tumours were also taken for bioanalysis.

SUDHL-4 xenograft = SUDHL-4 xenograft efficacy and survival; format: in vivo, C.B-17 SCID mouse
Experimental: as §1

telemetered dogs = details: dog, in vivo, 60 mg/kg
[2] = RS4;11, single dose AZD0466 34 mg/kg, 3 h, 34 mg/kg
[3] = RS4;11, single dose AZD0466 34 mg/kg, 8 h, 34 mg/kg
[4] = RS4;11, single dose AZD0466 34 mg/kg, 24 h, 34 mg/kg
[5] = RS4;11, single dose AZD0466 34 mg/kg, 48 h, 34 mg/kg
[6] = RS4;11, single dose AZD0466 34 mg/kg, 72 h, 34 mg/kg
[7] = RS4;11, single dose AZD0466 103 mg/kg, 3 h, 103 mg/kg
[8] = RS4;11, single dose AZD0466 103 mg/kg, 8 h, 103 mg/kg
[9] = RS4;11, single dose AZD0466 103 mg/kg, 24 h, 103 mg/kg
[10] = RS4;11, single dose AZD0466 103 mg/kg, 48 h, 103 mg/kg
[11] = RS4;11, single dose AZD0466 103 mg/kg, 72 h, 103 mg/kg

CN(CCO)CCC(CSc1ccccc1)Nc1ccc(S(=O)(=O)NC(=O)c2ccc(N3CCC(C(O)c4ccccc4-c4ccc(Cl)cc4)CC3)cc2)cc1S(=O)(=O)C(F)(F)F (centres unmarked) [AZD4320]
Tumor PK Released AZD4320, individual tumours ([1]; RS4;11, single dose 10 mg/kg or equivalent, 0.5 h, 10 mg/kg): 910 ng/g
Tumor PK Released AZD4320, individual tumours ([1]; RS4;11, single dose 10 mg/kg or equivalent, 1 h, 10 mg/kg): 813 ng/g
Tumor PK Released AZD4320, individual tumours ([1]; RS4;11, single dose 10 mg/kg or equivalent, 5 h, 10 mg/kg): 1290 ng/g and 307 ng/g
Tumor PK Released AZD4320, individual tumours ([1]; RS4;11, single dose 10 mg/kg or equivalent, 24 h, 10 mg/kg): 232 ng/g
time of maximum (released) AZD4320 concentration in tumour ([1]; RS4;11 tumours, 10 mg/kg or equivalent): ≤ 0.5 h
concentration at 0.5 h ([1]; female, C.B-17 SCID, mouse, tumour (RS4;11 xenograft), intravenous, 10 mg/kg, RS4;11, single dose 10 mg/kg or equivalent, 0.5 h, read-out: Tumor PK released AZD4320, individual tumours): 1360 ng/g
concentration at 1 h ([1]; female, C.B-17 SCID, mouse, tumour (RS4;11 xenograft), intravenous, 10 mg/kg, RS4;11, single dose 10 mg/kg or equivalent, 1 h, read-out: Tumor PK released AZD4320, individual tumours): 1220 ng/g
concentration at 24 h ([1]; female, C.B-17 SCID, mouse, tumour (RS4;11 xenograft), intravenous, 10 mg/kg, RS4;11, single dose 10 mg/kg or equivalent, 24 h, read-out: Tumor PK released AZD4320, individual tumours): 359 ng/g

AZD4320-MIDA-PEG2100 [AZD0466]
Concentration of Released AZD4320 in Tumour, Mean ([1]; 1 hr): 8.1 ng/mL
Concentration of Released AZD4320 in Tumour, individual samples (Fig 5g/5h) ([1]; 1 hr): 8.2 ng/mL and 11.2 ng/mL and 4.7 ng/mL
Concentration of Released AZD4320 in Tumour, Mean ([1]; 3 hr): 15.1 ng/mL
Concentration of Released AZD4320 in Tumour, individual samples (Fig 5g/5h) ([1]; 3 hr): 16 ng/mL and 18.8 ng/mL and 10.4 ng/mL
Concentration of Released AZD4320 in Tumour, Mean ([1]; 9 hr): 109 ng/mL
Concentration of Released AZD4320 in Tumour, individual samples (Fig 5g/5h) ([1]; 9 hr): 178.8 ng/mL and 71.4 ng/mL and 78 ng/mL
Concentrations of Total AZD4320 in Tumour, individual samples ([1]; 9 hr): 1886 ng/mL and 831 ng/mL and 866 ng/mL
Concentration of Released AZD4320 in Tumour, Mean ([1]; 20 hr): 244 ng/mL
Concentration of Released AZD4320 in Tumour, individual samples (Fig 5g/5h) ([1]; 20 hr): 214.9 ng/mL and 250.1 ng/mL and 267.9 ng/mL
Concentration of Released AZD4320 in Tumour, Mean ([1]; 48 hr): 389 ng/mL
Concentration of Released AZD4320 in Tumour, individual samples (Fig 5g/5h) ([1]; 48 hr): 493.9 ng/mL and 123.4 ng/mL and 550.2 ng/mL
Concentrations of Total AZD4320 in Tumour, individual samples ([1]; 48 hr): 1152 ng/mL and 319 ng/mL and 1257 ng/mL
Concentration of Released AZD4320 in Tumour, Mean ([1]; 72 hr): 462 ng/mL
Concentration of Released AZD4320 in Tumour, individual samples (Fig 5g/5h) ([1]; 72 hr): 290.2 ng/mL and 611.5 ng/mL and 485 ng/mL
Tumor PK Released AZD4320, individual tumours [1, 2]: 16 ng/g and 18.8 ng/g and 10.4 ng/g
Tumor PK Total AZD4320, individual tumours [1, 2]: 621 ng/g and 697 ng/g and 376 ng/g
Tumor PK Released AZD4320, individual tumours [1, 3]: 179 ng/g and 71.4 ng/g and 78 ng/g
Tumor PK Total AZD4320, individual tumours [1, 3]: 1886 ng/g and 831 ng/g and 866 ng/g
Tumor PK Released AZD4320, individual tumours [1, 4]: 215 ng/g and 250 ng/g and 268 ng/g
Tumor PK Total AZD4320, individual tumours [1, 4]: 926 ng/g and 923 ng/g and 1118 ng/g
Tumor PK Released AZD4320, individual tumours [1, 5]: 494 ng/g and 123 ng/g and 550 ng/g
Tumor PK Total AZD4320, individual tumours [1, 5]: 1152 ng/g and 319 ng/g and 1257 ng/g
Tumor PK Released AZD4320, individual tumours [1, 6]: 290 ng/g and 612 ng/g and 485 ng/g
Tumor PK Total AZD4320, individual tumours [1, 6]: 536 ng/g and 983 ng/g and 719 ng/g
Tumor PK Released AZD4320, individual tumours [1, 7]: 227 ng/g and 79 ng/g and 90 ng/g
Tumor PK Total AZD4320, individual tumours [1, 7]: 5852 ng/g and 2518 ng/g and 2703 ng/g
Tumor PK Released AZD4320, individual tumours [1, 8]: 1407 ng/g and 1218 ng/g and 972 ng/g
Tumor PK Total AZD4320, individual tumours [1, 8]: 14358 ng/g and 9822 ng/g and 9418 ng/g
Tumor PK Released AZD4320, individual tumours [1, 9]: 1730 ng/g and 1595 ng/g and 1484 ng/g
Tumor PK Total AZD4320, individual tumours [1, 9]: 4335 ng/g and 4133 ng/g and 3920 ng/g
Tumor PK Released AZD4320, individual tumours [1, 10]: 3581 ng/g and 4025 ng/g and 5214 ng/g
Tumor PK Total AZD4320, individual tumours [1, 10]: 6225 ng/g and 5604 ng/g and 9523 ng/g
Tumor PK Released AZD4320, individual tumours [1, 11]: 3295 ng/g and 5783 ng/g and 7049 ng/g
Tumor PK Total AZD4320, individual tumours [1, 11]: 6132 ng/g and 7039 ng/g and 8246 ng/g
Mean concentration of total AZD4320 in tumour ([1]; 1 hr): 536 ng/mL
Concentration of total AZD4320 in tumour ([1]; 1 hr): 553 ng/mL and 665 ng/mL and 390 ng/mL
Mean concentration of total AZD4320 in tumour ([1]; 3 hr): 565 ng/mL
Concentration of total AZD4320 in tumour ([1]; 3 hr): 621 ng/mL and 697 ng/mL and 376 ng/mL
Mean concentration of total AZD4320 in tumour ([1]; 9 hr): 1194 ng/mL
Mean concentration of total AZD4320 in tumour ([1]; 20 hr): 989 ng/mL
Concentration of total AZD4320 in tumour ([1]; 20 hr): 926 ng/mL and 923 ng/mL and 1118 ng/mL
Mean concentration of total AZD4320 in tumour ([1]; 48 hr): 909 ng/mL
Mean concentration of total AZD4320 in tumour ([1]; 72 hr): 746 ng/mL
Concentration of total AZD4320 in tumour ([1]; 72 hr): 536 ng/mL and 983 ng/mL and 719 ng/mL
animals with complete and durable regressions (SUDHL-4 xenograft; SUDHL-4, 103 mg/kg AZD0466 + 10 mg/kg rituximab): 5/6
animals with complete and durable regressions (SUDHL-4 xenograft; SUDHL-4, 172 mg/kg AZD0466 + 10 mg/kg rituximab): 6/6
combination effect (SUDHL-4 xenograft; SUDHL-4, AZD0466 at various doses combined with 10 mg/kg rituximab): tumour regressions were seen in the combination groups at all doses
SUDHL-4 xenograft efficacy, Geo Mean (SUDHL-4 xenograft; day 1): 200.82
SUDHL-4 xenograft efficacy, Geo Mean (SUDHL-4 xenograft; day 5): 191.7
SUDHL-4 xenograft efficacy, Geo Mean (SUDHL-4 xenograft; day 9): 255.655
SUDHL-4 xenograft efficacy, Geo Mean (SUDHL-4 xenograft; day 12): 291.711
SUDHL-4 xenograft efficacy, Geo Mean (SUDHL-4 xenograft; day 16): 450.847
SUDHL-4 xenograft efficacy, Geo Mean (SUDHL-4 xenograft; day 19): 493.153
SUDHL-4 xenograft efficacy, Geo Mean (SUDHL-4 xenograft; day 23): 795.158
SUDHL-4 xenograft efficacy, Geo Mean (SUDHL-4 xenograft; day 26): 1047.96
SUDHL-4 xenograft efficacy, Geo Mean (SUDHL-4 xenograft; day 29): 1181.66
adverse clinical signs (telemetered dogs): not associated with any adverse clinical signs
